This passage reports self-cleavage results from the RNAGym collection of RNA variant scans (doi:10.7554/elife.80360).

The chains are these.
B1: HDV Ribozyme (parent)
chain: GGCCGGCAUGGUCCCAGCCUCCUCGCUGGCGCCGGCUGGGCAACAUUCCGAGGGGACCGUCCCCUCGGUAAUGGCGAAUGGGACCCA

The variants in the data set derive from B1. As to the kind of experiment: self-cleavage, relative activity (ratio to wild type); higher = more cleavage; co-transcriptional.
Take AGCCGACAUGGUCCCAGCCUCCUCGCUGGCGCCGGCUGGGCAACAUUCCGAGGGGACCGUCCCCUCGGUAAUGGCGAAUGGGACCCA [G1A G6A]: the self-cleavage amounted to 0.437.
Consider AGCCGGCAUGGUCCCAGCCUCCUCGCUGGCGCCGGCUGGGCAACAUUCAGAGGGGACCGUCCCCUCGGUAAUGGCGAAUGGGACCCA [G1A C49A], for which the self-cleavage is 0.0923.
With AGCCGGCAUGGUCCCAGCCUCCUCGCUGGCGCCGGCUGGGCAACAUUCGGAGGGGACCGUCCCCUCGGUAAUGGCGAAUGGGACCCA [G1A C49G] the figure was 0.166; with AGCCGGCAUGGUCGCAGCCUCCUCGCUGGCGCCGGCUGGGCAACAUUCCGAGGGGACCGUCCCCUCGGUAAUGGCGAAUGGGACCCA [G1A C14G], 0.0665.
In the case of AGCCGGCAUGGUCCCAGCCUCCUCGCUGGCGCCGGCUGGGCAACAUUCCGAGGGGACCGUCCCCUCGGUGAUGGCGAAUGGGACCCA [G1A A70G] it was 0.214; in that of AGCCGGCAUGGUCCCAGCCUCCUCGCUGGCGCCGGCUGGGGAACAUUCCGAGGGGACCGUCCCCUCGGUAAUGGCGAAUGGGACCCA [G1A C41G], 0.
In the case of AGCCGGCAUGGUCCCAGCCUCCUCGCUGGCGCCGGUUGGGCAACAUUCCGAGGGGACCGUCCCCUCGGUAAUGGCGAAUGGGACCCA [G1A C36U] it was 0.244.
Take AGCCGGCAUGGUCCCAGCCUCCUCGCUGGCGCCGGCUGGGCAACAUUCCGAGGGGACCGUCCCCUCGGUAAUGGCGAAUGGGACCAA [G1A C86A]: the self-cleavage turned out to be 0.119.
In the case of AGCCGGCAUGGUCCCAGCCUCCUCGCUGGCGCCGGCUGGGCAACAUUCCGAGGGGACCGUCCCCUCGGUAAUGGCGAAUGGGACCUA [G1A C86U] it was 0.19.
With AGCCGGCAUGGUCCCGGCCUCCUCGCUGGCGCCGGCUGGGCAACAUUCCGAGGGGACCGUCCCCUCGGUAAUGGCGAAUGGGACCCA [G1A A16G] the figure was 0.302; with AGCCGGCAUGGUCCCAGCCUGCUCGCUGGCGCCGGCUGGGCAACAUUCCGAGGGGACCGUCCCCUCGGUAAUGGCGAAUGGGACCCA [G1A C21G], 0.0489; with AGCCGGCAUGGUCCCAGCCUCCUCGCUGGCGCCGGCUGGGCAACAUUCCGUGGGGACCGUCCCCUCGGUAAUGGCGAAUGGGACCCA [G1A A51U], 0.
With AGCCGGCAUGGUCCCAGCCUCCUCGCUGGCGCCGGCUGGGCAACAUUCCGAGGGGACCGUCCUCUCGGUAAUGGCGAAUGGGACCCA [G1A C63U] the figure was 0.147; with AGCCGGCAUGGUCCCAGACUCCUCGCUGGCGCCGGCUGGGCAACAUUCCGAGGGGACCGUCCCCUCGGUAAUGGCGAAUGGGACCCA [G1A C18A], 0.113; with AGCCGGCAUGGUCCCAGCCUCCUGGCUGGCGCCGGCUGGGCAACAUUCCGAGGGGACCGUCCCCUCGGUAAUGGCGAAUGGGACCCA [G1A C24G], 0.0702.
In the case of ACCCGGCAUGGUCCCAGCCUCCUCGCUGGCGCCGGCUGGGCAACAUUCCGAGGGGACCGUCCCCUCGGUAAUGGCGAAUGGGACCCA [G1A G2C], the self-cleavage turned out to be 0.0773.
With AGCCGGCAUGGUCCCAGCCUCCUCGCUGGCGCCGGCUGGGCAACAUUCCGAGGGGACCGUCCCCUCGGUAAUGGCGACUGGGACCCA [G1A A78C] the figure was 0.0627; with AGCCGGAAUGGUCCCAGCCUCCUCGCUGGCGCCGGCUGGGCAACAUUCCGAGGGGACCGUCCCCUCGGUAAUGGCGAAUGGGACCCA [G1A C7A], 0.191; with AGCCGGCAUGGUCCCAGCCUCCUCGCUGGCGCAGGCUGGGCAACAUUCCGAGGGGACCGUCCCCUCGGUAAUGGCGAAUGGGACCCA [G1A C33A], 0.0554.
With AGCCGGCAUGGUCCCAGCCUCCUCGCUGGCGCGGGCUGGGCAACAUUCCGAGGGGACCGUCCCCUCGGUAAUGGCGAAUGGGACCCA [G1A C33G] the figure was 0.148; with AGCCGGCAUGGUCCCAGCCUCCUCGCUGGCGCCGGCUGGGCAAGAUUCCGAGGGGACCGUCCCCUCGGUAAUGGCGAAUGGGACCCA [G1A C44G], 0.138.
In the case of AGCCGGCAUGGUCCCAGCCUCCUCGCUGGCGCCGGCUGGGCAAUAUUCCGAGGGGACCGUCCCCUCGGUAAUGGCGAAUGGGACCCA [G1A C44U] it was 0.0898; in that of AGCCGGCAUGGUCCCAGCCUCCUCGCUGGCGCCGGCUGGGCAACAUUCCGAGGGGACCGUCCCCUCGGUAAUGGCGCAUGGGACCCA [G1A A77C], 0.0405.
For AGACGGCAUGGUCCCAGCCUCCUCGCUGGCGCCGGCUGGGCAACAUUCCGAGGGGACCGUCCCCUCGGUAAUGGCGAAUGGGACCCA [G1A C3A], the self-cleavage was 0.0627.
As for AGGCGGCAUGGUCCCAGCCUCCUCGCUGGCGCCGGCUGGGCAACAUUCCGAGGGGACCGUCCCCUCGGUAAUGGCGAAUGGGACCCA [G1A C3G], the self-cleavage worked out at 0.227.
With AGCCGGCAUGGUCCCAGCCUCCUCGCUGGCGCCGGCUGGGCAACAUUCCGAGGGGAUCGUCCCCUCGGUAAUGGCGAAUGGGACCCA [G1A C57U] the figure was 0; with AGCCGGCAUGGUCCCAGCCUCCUCGCUGGCGCCGGCUGGGCAACAUUCCGAGGGGACAGUCCCCUCGGUAAUGGCGAAUGGGACCCA [G1A C58A], 0.0978; with AGCCGGCAUGGUCCCAGCCUCCUCGCUGGCGCCGGCUGGGCAACAUUCCGAGGGGACCGUCCCCUCGGUAAUGGCGAAUGGGCCCCA [G1A A83C], 0.138.
With AGCCGGCAUGGUCCCAGCCUCCUCGCUGGCGCCGGCUGGGCAACAUUCCGAGGGGACCGUCCCCUCGGUAAUGGCGAAUGGGACCCU [G1A A87U] the figure was 0.157; with AGCCGGCAUGGUCCCAGCCUCCUCGCUGGCGCCGGCUGGGCAACAUUCCGAGGGGACCGUCCCCUCGGUAAUGGCGAAUGGGACCCC [G1A A87C], 0.121.
For AGCCGGCUUGGUCCCAGCCUCCUCGCUGGCGCCGGCUGGGCAACAUUCCGAGGGGACCGUCCCCUCGGUAAUGGCGAAUGGGACCCA [G1A A8U], the self-cleavage came to 0.
In the case of AGCCGGCAUGGUCCCAGCCUCCUCGCUGGCGCCGGCUGGGCAACAUUCCGAGGGGACCGUCCCCUAGGUAAUGGCGAAUGGGACCCA [G1A C66A] it was 0.26.
